What is called Kd is the free concentration of one partner at which half of the binding sites on the other are occupied at equilibrium, for simple one-to-one binding. Higher therefore signals a looser complex.

The results in this text go back to patent US20250145729A1 (DENALI THERAPEUTICS, published 2025).

One assay addresses T1, human CD98hc (human, UniProt P08195 109-529).
T1 construct: also called huCD98hc; CD98 heavy chain
T1 sequence: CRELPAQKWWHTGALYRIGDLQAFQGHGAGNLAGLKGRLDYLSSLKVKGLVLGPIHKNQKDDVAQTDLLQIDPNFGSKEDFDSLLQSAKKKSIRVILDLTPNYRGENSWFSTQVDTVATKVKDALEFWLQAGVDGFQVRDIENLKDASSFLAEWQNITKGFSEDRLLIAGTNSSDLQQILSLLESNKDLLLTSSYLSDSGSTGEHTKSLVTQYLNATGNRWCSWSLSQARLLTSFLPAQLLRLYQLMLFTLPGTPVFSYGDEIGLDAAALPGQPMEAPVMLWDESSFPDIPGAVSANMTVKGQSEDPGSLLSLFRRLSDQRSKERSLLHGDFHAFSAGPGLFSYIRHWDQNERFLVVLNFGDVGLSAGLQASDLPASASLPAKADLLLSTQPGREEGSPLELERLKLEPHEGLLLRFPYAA
As to the kind of experiment: SPR (Biacore). An outline of the steps: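 The values are Kd for CD98hc binding by engineered Fc polypeptides, determined by surface plasmon resonance on a Biacore instrument. Clones were tested as Fc-Fab fusions carrying anti-BACE1 Fabs, in bivalent form or in a monovalent knob/hole form with the CD98hc-binding site only on the knob chain.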
A general note: Surface plasmon resonance follows binding to a sensor surface in real time, without labels.

Assay [1] addresses T2, circularly permuted human TfR apical domain (human).
T2 construct: TfR residues 326-379 stand N-terminal to 194-296, loop 297-325 deleted; also called huTfR Apical Domain
T2 chain: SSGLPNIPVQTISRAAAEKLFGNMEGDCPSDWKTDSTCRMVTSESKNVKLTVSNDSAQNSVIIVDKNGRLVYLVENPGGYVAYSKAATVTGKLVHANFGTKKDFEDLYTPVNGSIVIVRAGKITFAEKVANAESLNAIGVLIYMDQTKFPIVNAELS
As to the kind of experiment: SPR, supernatant, anti-Fab capture. On the procedure: (§1) Clones were expressed in HEK293 cells. Supernatants were captured for SPR by GE Healthcare anti-human Fab capture kit and the affinity to human and cyno TfR apical domain was measured (Table 30). The clones in Table 30 were bivalent and each TfR-binding Fc polypeptide also contained P329G and LALA mutations.

The target of assay [2] is T3, circularly permuted cyno TfR apical domain (cynomolgus monkey).
T3 construct: same design as the human construct; also called cyTfR Apical Domain; cynomolgus TfR apical domain
T3 chain: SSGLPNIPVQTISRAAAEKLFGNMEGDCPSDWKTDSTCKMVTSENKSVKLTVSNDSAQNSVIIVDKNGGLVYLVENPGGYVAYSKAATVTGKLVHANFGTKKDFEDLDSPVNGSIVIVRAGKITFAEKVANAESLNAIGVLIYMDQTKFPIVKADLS
As to the kind of experiment: SPR, supernatant, anti-Fab capture. The method, then: as §1

B1: LLB2-2 (Fc fusion)
chain: APELLGGPSVFLFPPKPKDTLMISRTPEVTCVVVDVSHEDPEVKFNWYVDGVEVHNAKTKPREEQYNSTYRVVSVLTVLHQDWLNGKEYKCKVSNKALPAPIEKTISKAKGQPREPQVYTLPPSRDELTKNQVSLTCLVKGFYPSDIAVIWNSRFSLENNYKTTPPVLDSDGSFFLYSKLTVDKSRWQQGNIFACNVLHEALHNHYTFKNLSLSPGK
notes: Fc part only
In turn, B1 showed a dissociation constant (Kd) in the assay with human CD98hc of 1300 nM.

B2: LLB2-27 (Fc fusion)
chain: APELLGGPSVFLFPPKPKDTLMISRTPEVTCVVVDVSHEDPEVKFNWYVDGVEVHNAKTKPREEQYNSTYRVVSVLTVLHQDWLNGKEYKCKVSNKALPAPIEKTISKAKGQPREPQVYTLPPSRDELTKNQVSLTCLVKGFYPSDIAVLWMNHFTLENNYKTTPPVLDSDGSFFLYSKLTVDKSRWQQGNIFACNVMHEALHNHYTFKPLPLSPGK
notes: Fc part only
Regarding B2, the binding result with human CD98hc is given as “no binding”.

B3: LLB2-5 (Fc fusion)
chain: APELLGGPSVFLFPPKPKDTLMISRTPEVTCVVVDVSHEDPEVKFNWYVDGVEVHNAKTKPREEQYNSTYRVVSVLTVLHQDWLNGKEYKCKVSNKALPAPIEKTISKAKGQPREPQVYTLPPSRDELTKNQVSLTCLVKGFYPSDIAVLWNSKFSLENNYKTTPPVLDSDGSFFLYSKLTVDKSRWQQGNIFACNVLHEALHNHYTFKNLSLSPGK
notes: Fc part only
The molecule B3 came in with a dissociation constant Kd with human CD98hc of 1900 nM. In other words, the single-digit micromolar range.

B4: LLB2-29 (Fc fusion)
chain: APELLGGPSVFLFPPKPKDTLMISRTPEVTCVVVDVSHEDPEVKFNWYVDGVEVHNAKTKPREEQYNSTYRVVSVLTVLHQDWLNGKEYKCKVSNKALPAPIEKTISKAKGQPREPQVYTLPPSRDELTKNQVSLTCLVKGFYPSDIAVLWYDLFVLENNYKTTPPVLDSDGSFFLYSKLTVDKSRWQQGNIFACNVLHEALHNHYTFKEPFLSPGK
notes: Fc part only
In the case of B4, the binding result in the assay with human CD98hc is given as “no binding”.

B5: LLB2-7 (Fc fusion)
chain: APELLGGPSVFLFPPKPKDTLMISRTPEVTCVVVDVSHEDPEVKFNWYVDGVEVHNAKTKPREEQYNSTYRVVSVLTVLHQDWLNGKEYKCKVSNKALPAPIEKTISKAKGQPREPQVYTLPPSRDELTKNQVSLTCLVKGFYPSDIAVLWNSRYSLENNYKTTPPVLDSDGSFFLYSKLTVDKSRWQQGNIFACNVLHEALHNHYTFKNLSLSPGK
notes: Fc part only
B5 returned a Kd with human CD98hc of 3600 nM.

B6: LLB2-19 (Fc fusion)
chain: APELLGGPSVFLFPPKPKDTLMISRTPEVTCVVVDVSHEDPEVKFNWYVDGVEVHNAKTKPREEQYNSTYRVVSVLTVLHQDWLNGKEYKCKVSNKALPAPIEKTISKAKGQPREPQVYTLPPSRDELTKNQVSLTCLVKGFYPSDIVVLWNSRFSLEANVKTTPPVLDSDGSFFLYSKLTVDKSRWQQGQIFACNVLHEALHNHVTFKNLVLSPGK
notes: Fc part only
With B6, the dissociation constant (Kd) in the assay with human CD98hc came to 9200 nM.

B7: LLB2-4 (Fc fusion)
chain: APELLGGPSVFLFPPKPKDTLMISRTPEVTCVVVDVSHEDPEVKFNWYVDGVEVHNAKTKPREEQYNSTYRVVSVLTVLHQDWLNGKEYKCKVSNKALPAPIEKTISKAKGQPREPQVYTLPPSRDELTKNQVSLTCLVKGFYPSDIAVLWSSRFSLENNYKTTPPVLDSDGSFFLYSKLTVDKSRWQQGNIFACNVLHEALHNHYTFKNLSLSPGK
notes: Fc part only
In the assay with human CD98hc, B7 gave a Kd of 1700 nM.

B8: LLB2-3 (Fc fusion)
chain: APELLGGPSVFLFPPKPKDTLMISRTPEVTCVVVDVSHEDPEVKFNWYVDGVEVHNAKTKPREEQYNSTYRVVSVLTVLHQDWLNGKEYKCKVSNKALPAPIEKTISKAKGQPREPQVYTLPPSRDELTKNQVSLTCLVKGFYPSDIAVMWNSRFSLENNYKTTPPVLDSDGSFFLYSKLTVDKSRWQQGNIFACNVLHEALHNHYTFKNLSLSPGK
notes: Fc part only
In the case of B8, in the assay with human CD98hc, binding was characterised by a dissociation constant (Kd) of 1200 nM.

B9: 42.8.198 (Fc fusion)
chain: APEAAGGPSVFLFPPKPKDTLMISRTPEVTCVVVDVSHEDPEVKFNWYVDGVEVHNAKTKPREEQYNSTYRVVSVLTVLHQDWLNGKEYKCKVSNKALGAPIEKTISKAKGQPREPQVYTLPPSRDELTKNQVSLTCLVKGFYPSDIAVEWFYEAQKLSNYKTTPPVLDSDGSFFLYSKLTVDKSRWQQGNLFACEVMHEALHNHYTYKLLSLSPGK
notes: bivalent; P329G+LALA
Take B9: the figures for the Kd in assay [1] and in assay [2] were 841 nM and 12200 nM, respectively.

B10: 42.8.205 (Fc fusion)
chain: APEAAGGPSVFLFPPKPKDTLMISRTPEVTCVVVDVSHEDPEVKFNWYVDGVEVHNAKTKPREEQYNSTYRVVSVLTVLHQDWLNGKEYKCKVSNKALGAPIEKTISKAKGQPREPQVYTLPPSRDELTKNQVSLTCLVKGFYPSDIAVEWFYEDQKENNYKTTPPVLDSDGSFFLYSKLTVDKSRWQQGNLFACEVMHEALHNHYTYKLLSLSPGK
notes: bivalent; P329G+LALA
Consider B10, for which the Kd was 1130 nM in assay [1] and 11400 nM in assay [2].

B11: 42.8.203 (Fc fusion)
chain: APEAAGGPSVFLFPPKPKDTLMISRTPEVTCVVVDVSHEDPEVKFNWYVDGVEVHNAKTKPREEQYNSTYRVVSVLTVLHQDWLNGKEYKCKVSNKALGAPIEKTISKAKGQPREPQVYTLPPSRDELTKNQVSLTCLVKGFYPSDIAVEWFYEASKLTNYKTTPPVLDSDGSFFLYSKLTVDKSRWQQGNLFACEVMHEALHNHYTYKLLSLSPGK
notes: bivalent; P329G+LALA
As for B11, the results for the Kd in assay [1] and in assay [2] were 394 nM and 5460 nM, respectively.

B12: 42.8.209 (Fc fusion)
chain: APEAAGGPSVFLFPPKPKDTLMISRTPEVTCVVVDVSHEDPEVKFNWYVDGVEVHNAKTKPREEQYNSTYRVVSVLTVLHQDWLNGKEYKCKVSNKALGAPIEKTISKAKGQPREPQVYTLPPSRDELTKNQVSLTCLVKGFYPSDIAVEWFYEDQKLTNYKTTPPVLDSDGSFFLYSKLTVDKSRWQQGNLFACEVMHEALHNHYTYKLLSLSPGK
notes: bivalent; P329G+LALA
Take B12: the values for the Kd in assay [1] and in assay [2] were 380 nM and 6030 nM, respectively.

B13: 42.8.211 (Fc fusion)
chain: APEAAGGPSVFLFPPKPKDTLMISRTPEVTCVVVDVSHEDPEVKFNWYVDGVEVHNAKTKPREEQYNSTYRVVSVLTVLHQDWLNGKEYKCKVSNKALGAPIEKTISKAKGQPREPQVYTLPPSRDELTKNQVSLTCLVKGFYPSDIAVEWFYEDSKENNYKTTPPVLDSDGSFFLYSKLTVDKSRWQQGNLFACEVMHEALHNHYTYKLLSLSPGK
notes: bivalent; P329G+LALA
B13: the Kd is 966 nM in assay [1] and 10700 nM in assay [2].

B14: 42.8.214 (Fc fusion)
chain: APEAAGGPSVFLFPPKPKDTLMISRTPEVTCVVVDVSHEDPEVKFNWYVDGVEVHNAKTKPREEQYNSTYRVVSVLTVLHQDWLNGKEYKCKVSNKALGAPIEKTISKAKGQPREPQVYTLPPSRDELTKNQVSLTCLVKGFYPSDIAVEWFYEDSKLNNYKTTPPVLDSDGSFFLYSKLTVDKSRWQQGNLFACEVMHEALHNHYTYKLLSLSPGK
notes: bivalent; P329G+LALA
B14: the Kd in assay [1] was 427 nM; in assay [2] it was 6090 nM.

B15: 42.8.206 (Fc fusion)
chain: APEAAGGPSVFLFPPKPKDTLMISRTPEVTCVVVDVSHEDPEVKFNWYVDGVEVHNAKTKPREEQYNSTYRVVSVLTVLHQDWLNGKEYKCKVSNKALGAPIEKTISKAKGQPREPQVYTLPPSRDELTKNQVSLTCLVKGFYPSDIAVEWFYEDQKETNYKTTPPVLDSDGSFFLYSKLTVDKSRWQQGNLFACEVMHEALHNHYTYKLLSLSPGK
notes: bivalent; P329G+LALA
As for B15, the Kd in assay [1] amounted to 827 nM; in assay [2], 10800 nM.

B16: 42.8.200 (Fc fusion)
chain: APEAAGGPSVFLFPPKPKDTLMISRTPEVTCVVVDVSHEDPEVKFNWYVDGVEVHNAKTKPREEQYNSTYRVVSVLTVLHQDWLNGKEYKCKVSNKALGAPIEKTISKAKGQPREPQVYTLPPSRDELTKNQVSLTCLVKGFYPSDIAVEWFYEASKETNYKTTPPVLDSDGSFFLYSKLTVDKSRWQQGNLFACEVMHEALHNHYTYKLLSLSPGK
notes: bivalent; P329G+LALA
As to B16, the results for the equilibrium dissociation constant (Kd) in assay [1] and in assay [2] were 505 nM and 6210 nM, respectively.

B17: 42.8.215 (Fc fusion)
chain: APEAAGGPSVFLFPPKPKDTLMISRTPEVTCVVVDVSHEDPEVKFNWYVDGVEVHNAKTKPREEQYNSTYRVVSVLTVLHQDWLNGKEYKCKVSNKALGAPIEKTISKAKGQPREPQVYTLPPSRDELTKNQVSLTCLVKGFYPSDIAVEWFYEDSKLTNYKTTPPVLDSDGSFFLYSKLTVDKSRWQQGNLFACEVMHEALHNHYTYKLLSLSPGK
notes: bivalent; P329G+LALA
With B17, the Kd in assay [1] is 293 nM; in assay [2], 4940 nM.
